Source: patent US20230250164A1 (AB2 BIO, published 2023)

T1: human interleukin-18 (IL-18), recombinant (human, UniProt Q14116 37-193)
T1 construct: Commercial recombinant human IL-18; also called human IL-18; free IL-18
T1 sequence (looked up): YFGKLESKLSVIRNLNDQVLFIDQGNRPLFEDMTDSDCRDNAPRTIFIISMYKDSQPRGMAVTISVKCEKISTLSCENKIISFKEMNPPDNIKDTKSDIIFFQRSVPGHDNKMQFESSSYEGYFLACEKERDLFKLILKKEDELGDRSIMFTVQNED

T2: IL-18/IL-18BP complex (human, UniProt Q14116 37-193)
T2 construct: In the third screening step: Luminex beads linked to IL-18BP and then complexed to IL-18; also called IL-18 previously complexed to IL-18BP; complex IL-18/IL-18BP
T2 sequence 1: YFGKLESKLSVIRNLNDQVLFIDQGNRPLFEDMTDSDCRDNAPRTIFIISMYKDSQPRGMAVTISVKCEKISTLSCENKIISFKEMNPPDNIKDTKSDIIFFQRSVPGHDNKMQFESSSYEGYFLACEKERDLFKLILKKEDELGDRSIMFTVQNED
T2 sequence 2: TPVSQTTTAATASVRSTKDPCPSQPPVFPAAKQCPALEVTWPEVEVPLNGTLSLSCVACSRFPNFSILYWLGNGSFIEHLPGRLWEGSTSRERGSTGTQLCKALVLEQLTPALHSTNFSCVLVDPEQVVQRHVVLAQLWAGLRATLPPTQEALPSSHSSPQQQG


Experiments:
[1] = target: T1, human interleukin-18 (IL-18), …; assay: free IL-18 ELISA with IL-18BP capture; 400 pg/mL IL-18 in PBS 5% BSA spiked with IL-18BP
Protocol: After that, 20 μl sample volume containing biological fluid or standard is dispensed per microplate well. Non-diluted or diluted biological fluid can be but is not restricted to serum, urine, tear, saliva, bile, sweat, exhalation or expiration, sputum, bronchoalveolar fluid, sebum, cellular, gland, mucosa or tissue secretion, biopsy, homogenized tissue. […] The plates are sealed and then incubated under gentle shaking for free IL-18 capture. […] The microplate wells are the washed extensively with the appropriate buffer and then, 100 μl buffer developing mixture is added to each well. The developing mixture contains a streptavidin-conjugated enzyme such as peroxidase or alkaline phosphatase. […] The resulting reactions are then monitored with a microplate reader at an appropriate nanometer wavelength for absorbance or fluorescence of the produced reagent.

[2] = target: T1, human interleukin-18 (IL-18), …; assay: free IL-18 ELISA with plate-bound IL-18BP as capture; 400 pg/ml IL-18 in PBS with 5% BSA spiked with soluble IL-18BP at 0 to 10000 pg/ml; soluble IL-18BP competes with the capture IL-18BP
From the text: Microplates can also be dried in a stabilizing solution allowing storage at room temperature and then be reconstituted by hydration when needed for assay.

IL-18/IL-18BP complex [3] = target: T2, IL-18/IL-18BP complex; assay: Luminex, third screening step against first
Protocol: (§1) Mice were vaccinated aginst human interleukin-18 using a technology allowing immunization with properly folded proteins. […] Following immunization, B cells were isolated from spleen and hybridized following standard hybridoma technology. […] The screening was performed in 3 sequential and selective steps: […]

[4] = target: T1, human interleukin-18 (IL-18), …; assay: Luminex competition, antibody pre-bound to IL-18 beads, biotinylated IL-18BP as competitor is detected
[5] = target: T1, human interleukin-18 (IL-18), …; assay: Luminex, IL-18 on beads, hybridoma antibody
Protocol: as §1

IL-18/IL-18BP complex [6] = target: T2, IL-18/IL-18BP complex; assay: Luminex, beads linked to IL-18BP then complexed to IL-18, antibody binding
Protocol: as §1

| Binder | molar ratio IL-18BP/IL-18 at which free IL-18 is near background [1] [fold] | IC50 (read off the curve) [2] [ng/mL] | fold inhibition (binding on IL-18 complexed to IL-18BP against binding on IL-18) (IL-18/IL-18BP complex [3]) [fold] | fluorescence intensity (IL-18BP binding on IL-18 previously complexed to monoclonal antibody) [4] [fluorescence intensity] | fluorescence intensity (monoclonal antibody binding on IL-18) [5] [fluorescence intensity] | fluorescence intensity (monoclonal antibody binding on IL-18 previously complexed to IL-18BP) (IL-18/IL-18BP complex [6]) [fluorescence intensity] |
| --- | --- | --- | --- | --- | --- | --- |
| recombinant human IL-18 Binding Protein (IL-18BP) (other, Biotinylated in the second Luminex screening step; also called human IL-18BP; hIL-18BP) TPVSQTTTAATASVRSTKDPCPSQPPVFPAAKQCPALEVTWPEVEVPLNGTLSLSCVACSRFPNFSILYWLGNGSFIEHLPGRLWEGSTSRERGSTGTQLCKALVLEQLTPALHSTNFSCVLVDPEQVVQRHVVLAQLWAGLRATLPPTQEALPSSHSSPQQQG | ~15 | ~2 |  |  |  |  |
| Antibody 107C6 (antibody, V domains shown, Mouse hybridoma monoclonal antibody; also called clone #107C6) VH: QIQLVQSGPELKKPGETVKLSCRASGYTFTNYGMNWVKQAPGKGLKWMGWINTYSGVPTYADDFKGQFAFSLETSAATAFLQINNLKDEDTATYFCAREGYSTTRSMDYWGQGTSVTVSS VL: DIVMSQSPSSLAVSAGEKVTMSCKSSQSLLDSRTRKNYLVWYQQKPGQSPKLLIYWASTRGSGVPDRFTGSGSGTDFTLTISSVQAEDLAVYYCKQSYNLRTFGGGTKLEIK |  |  | > 500 | 1390 | 26200 | 33 |
| monoclonal anti-IL-18 antibody clone 131H1 (antibody) chain 1: QVQLKQSGPGLVQPSQSLSITCTVSGFSLTSYGVHWVRQSPGKGLEWLGVIWSGGSTDYNAAFISRLSISKDNSKSQVFFKMNSLQADDTAIYYCARSYDYDGRGYFDYWGQGTTLTVSS chain 2: DIQMTQSPASLSASVGETVTITCRASENVYRYLAWYQQRQGKSPQLLVYSAKTLAEGVPSRFSGSGSGTQFSLKINTLQPEDFGTYYCQHHYNTPLTFGAGTKLELK chain 3: DIVMSQSPSSLAVSAGEKVTMSCKSSQSLFNSKTRKNYLAWFQQKPGQSPELLIYWASTRKSGVPDRFTGSGSGTDFTLTISSVQAEDLAVYYCKQSYNLWTFGGGTKLEIK |  |  | > 500 | 1030 | 24800 | 24 |
| Antibody 108F8 (antibody, V domains shown, Mouse hybridoma monoclonal antibody) VH: QIQLVQSGPDSKKPGETVKLSCRASGYTFTNYGMNWVKQAPGKGLKWMGWINTYSGVPTYADDFKGQFAFSLETSAATAFLQINNLKDEDTATYFCAREGYSTTRSMDYWGQGTSVTVSS VL: DIVMSQSPSSLAVSAGEKVTMSCKSSQSLLDSRTRKNYLVWYQQKPGQSPKLLIYWASTRGSGVPDRFTGSGSGTDFTLTISSVQAEDLAVYYCKQSYNLRTFGGGTKLEIK |  |  | > 500 | 1290 | 25100 | 45 |
| Antibody 109A6 (antibody, V domains shown, Mouse hybridoma monoclonal antibody) VH: EVQLQQSGAELVKPGASVKLSCTASGFKIKDTYIHWVIQRPAQGLEWIGRIDPANGNTIYGSKFQGKATLTADTSSNTAYIHLSSLTSGDSAVYYCAGYVWFAYWGQGTLVTVSA VL: DVVMTQVPLSLPVSLGDQASISCRSSQRLVHSNGNTYLHWFLQKPGQSPKLLIYTVSNRFSGVPDRFSGSGSGTDFTLKISRVEAEDLGVYFCSQSTLVPWTFGGGTKLEIK |  |  | > 500 | 913 | 25800 | 33 |
| Antibody 131B4 (antibody, V domains shown, Mouse hybridoma monoclonal antibody) VH: EVQVQQSGAELVKPGASVKLSCTASGFKIKDTYIHWLKQRPEQGLEWIGRIDPANGNTIYGSKFQGKATITADTSSNTAYIQLSSLTSGDTAVYFCAGYVWFAYWGQGTLVTVSA VL: DAVLTQTPLSLPVSLGDQASISCTSSQSLVHSNGNTYLHWYLQKPGQSPKLLIYKVSDRFSGVPDRFSGSGSGTDFTLMITRVEAEDLGVYFCSQSSLVPWTFGGGTKLEVK |  |  | > 500 | 1660 | 24800 | 41 |
| Antibody 132H4 (antibody, V domains shown, Mouse hybridoma monoclonal antibody) VH: EVKLVESGGGLVKPGGSLKLSCAASGFTFSNYAMSWVRQNPAKRLEWVATISSGGANIYYPDSVKGRFIISRDNARNTLYLQMSSLRSEDTAMYYCARGDYFNHFWFAYWGQGTLVTVSA VL: DVLMTQTPLSLPVSLGDQASISCRSSQSIVHSNGNTYLEWYLQKPGQSPKFLIYKVSNRFSGVPDRFSGSGSGTDFTLKINRVEAEDLGIYYCFQGSHVPWTFGGGTKLEIK |  |  | > 500 | 1490 | 23800 | 28 |
